The results in this text go back to FireProtDB.

Where “and” joins values, the source holds several entries; their conditions need not be identical. Equal values may be shown once.

The conditions of this data set: whole UniProt chain shown.
[1] abbreviates: Escherichia coli (strain K12), pH 3, Thermal, CD, glycine-HCl 10 mM, NaCl 0.1 M, reversible: yes.
Setting [2] is: Escherichia coli (strain K12), pH 3, Thermal, CD, glycine-HCl 10 mM, reversible: yes.
The mark [3] stands for this setting: Escherichia coli (strain K12), pH 5.5, Thermal, CD, Sodium acetate 5 mM, KCl 50 mM, reversible: no.
Setting [4] is: Escherichia coli (strain K12), pH 5.5, Thermal, CD, Sodium acetate 20 mM, reversible: yes.
The mark [5] stands for this setting: Escherichia coli (strain K12), pH 8, 25 °C, GdnHCl, CD, Potassium phosphate 20 mM, KCl 50 mM, reversible: yes.
The mark [6] stands for this setting: Escherichia coli (strain K12), pH 8, 25 °C, GdnHCl, CD, Potassium phosphate 50 mM, KCl 50 mM, reversible: yes.
The mark [7] stands for this setting: Escherichia coli (strain K12), pH 8, 25 °C, Urea, CD, Potassium phosphate 20 mM, KCl 50 mM, reversible: yes.
Setting [8] is: Erythrina corallodendron, pH 7.4, Thermal, DSC, Sodium phosphate 0.02 M, NaCl 0.15 M, reversible: yes.
[9] abbreviates: Escherichia coli (strain K12), pH 8.3, Thermal, DSC, borate 40 mM.
The mark [10] stands for this setting: Escherichia coli (strain K12), pH 7, 27 °C, Urea, Fluorescence, Potassium phosphate 50 mM, transition: 3, reversible: yes.
Where [11] appears, read: Escherichia coli (strain K12), pH 7, 25 °C, Thermal, DSC, Potassium phosphate 25 mM, KCl 100 mM, reversible: yes.
The mark [12] stands for this setting: Escherichia coli (strain K12), pH 7, Thermal, DSC, Potassium phosphate 25 mM, KCl 100 mM, reversible: yes.

B1: PTS system mannose-specific EIIAB component wild type, P69797 (protein)
chain: MTIAIVIGTHGWAAEQLLKTAEMLLGEQENVGWIDFVPGENAETLIEKYNAQLAKLDTTKGVLFLVDTWGGSPFNAASRIVVDKEHYEVIAGVNIPMLVETLMARDDDPSFDELVALAVETGREGVKALKAKPVEKAAPAPAAAAPKAAPTPAKPMGPNDYMVIGLARIDDRLIHGQVATRWTKETNVSRIIVVSDEVAADTVRKTLLTQVAPPGVTAHVVDVAKMIRVYNNPKYAGERVMLLFTNPTDVERLVEGGVKITSVNVGGMAFRQGKTQVNNAVSVDEKDIEAFKKLNARGIELEVRKVSTDPKLKMMDLISKIDK
As to B1, under “Escherichia coli (strain K12), pH 7.4, 22 °C, GdnHCl, CD, Sodium phosphate 20 mM, reversible: yes”, the unfolding free energy amounted to 6.5 kcal/mol. Further, for the setting “Escherichia coli (strain K12), pH 7.4, Thermal, CD, Sodium phosphate 20 mM, reversible: yes”, the “unfolding enthalpy (van 't Hoff)” value was 135 kcal/mol.

B2: Ribonuclease HI wild type, P0A7Y4 (protein)
chain: MLKQVEIFTDGSCLGNPGPGGYGAILRYRGREKTFSAGYTRTTNNRMELMAAIVALEALKEHCEVILSTDSQYVRQGITQWIHNWKKRGWKTADKKPVKNVDLWQRLDAALGQHQIKWEWVKGHAGHPENERCDELARAAAMNPTLEDTGYQVEV
Turning to B2, the midpoint of thermal melting (Tm) (Escherichia coli (strain K12), pH 3, Thermal, CD, Gly-HCl buffer 10 mM, NaCl 0.1 M, reversible: yes) came out at 49.8 °C; the melting temperature (Tm) under setting [1] stood at 50.1 °C; the Tm under setting [2] turned out to be 49.8 °C; the Tm under setting [3] turned out to be 66 °C; the Tm under setting [4] stood at 52 °C; the Tm (Escherichia coli (strain K12), pH 5.5, Thermal, CD, sodium acetate 20 mM, NaCl 0.1 M, reversible: yes) came to 52 °C. Besides, under “Escherichia coli (strain K12), pH 8, Thermal, CD, Potassium phosphate 20 mM, KCl 50 mM, reversible: yes”, the Tm came out at 55 °C. Also, the “unfolding enthalpy (van 't Hoff)” value reads like this: under setting [1], 113 kcal/mol; under setting [2], 98.1 kcal/mol; under setting [3], 120 kcal/mol; under setting [4], 89 kcal/mol. Further, the “heat capacity change of unfolding” value under setting [3] stood at 2.7 kcal/mol/K. The “denaturant midpoint (higher = more stable)” value is, setting by setting: under setting [5], 1.6 M; under setting [6], 1.18 M; under setting [7], 3.84 M. The unfolding free energy runs as follows: under setting [5], 7.2 kcal/mol; under setting [6], 3.95 kcal/mol; under setting [7], 7.4 kcal/mol.

B3: Lactose operon repressor wild type, P03023 (protein)
chain: MKPVTLYDVAEYAGVSYQTVSRVVNQASHVSAKTREKVEAAMAELNYIPNRVAQQLAGKQSLLIGVATSSLALHAPSQIVAAIKSRADQLGASVVVSMVERSGVEACKAAVHNLLAQRVSGLIINYPLDDQDAIAVEAACTNVPALFLDVSDQTPINSIIFSHEDGTRLGVEHLVALGHQQIALLAGPLSSVSARLRLAGWHKYLTRNQIQPIAEREGDWSAMSGFQQTMQMLNEGIVPTAMLVANDQMALGAMRAITESGLRVGADISVVGYDDTEDSSCYIPPLTTIKQDFRLLGQTSVDRLLQLSQGQAVKGNQLLPVSLVKRKTTLAPNTQTASPRALADSLMQLARQVSRLESGQ
Turning to B3, the Tm (Escherichia coli (strain K12), pH 7.4, Thermal, CD, phosphate 5 mM, reversible: no) was 53 °C.

B4: Peptidyl-prolyl cis-trans isomerase B wild type, P23869 (protein)
chain: MVTFHTNHGDIVIKTFDDKAPETVKNFLDYCREGFYNNTIFHRVINGFMIQGGGFEPGMKQKATKEPIKNEANNGLKNTRGTLAMARTQAPHSATAQFFINVVDNDFLNFSGESLQGWGYCVFAEVVDGMDVVDKIKGVATGRSGMHQDVPKEDVIIESVTVSE
As to B4, for the setting “Escherichia coli (strain K12), pH 8, 15 °C, NaCl, Fluorescence, Tris-HCl 0.1 M, NaCl 2.0 M, reversible: yes”, the unfolding free energy stood at 2.51 kcal/mol.

B5: Lectin wild type, P16404 (protein)
chain: MATYKLCSVLALSLTLFLLILNKVNSVETISFSFSEFEPGNDNLTLQGAALITQSGVLQLTKINQNGMPAWDSTGRTLYAKPVHIWDMTTGTVASFETRFSFSIEQPYTRPLPADGLVFFMGPTKSKPAQGYGYLGIFNNSKQDNSYQTLGVEFDTFSNPWDPPQVPHIGIDVNSIRSIKTQPFQLDNGQVANVVIKYDASSKILHAVLVYPSSGAIYTIAEIVDVKQVLPEWVDVGLSGATGAQRDAAETHDVYSWSFQASLPETNDAVIPTSNHNTFAI
B5: under setting [8], the Tm was 61.7 °C, the “unfolding enthalpy (calorimetric)” value was determined as 320 kcal/mol and the “unfolding enthalpy (van 't Hoff)” value turned out to be 151 kcal/mol.

B6: Ornithine carbamoyltransferase subunit I wild type, P04391 (protein)
chain: MSGFYHKHFLKLLDFTPAELNSLLQLAAKLKADKKSGKEEAKLTGKNIALIFEKDSTRTRCSFEVAAYDQGARVTYLGPSGSQIGHKESIKDTARVLGRMYDGIQYRGYGQEIVETLAEYASVPVWNGLTNEFHPTQLLADLLTMQEHLPGKAFNEMTLVYAGDARNNMGNSMLEAAALTGLDLRLVAPQACWPEAALVTECRALAQQNGGNITLTEDVAKGVEGADFIYTDVWVSMGEAKEKWAERIALLREYQVNSKMMQLTGNPEVKFLHCLPAFHDDQTTLGKKMAEEFGLHGGMEVTDEVFESAASIVFDQAENRMHTIKAVMVATLSK
Consider B6, for which, under setting [9], the midpoint of thermal melting (Tm) came to 62.5 °C and the “unfolding enthalpy (calorimetric)” value worked out at 600 kcal/mol.

B7: 3-isopropylmalate dehydrogenase wild type, P30125 (protein)
chain: MSKNYHIAVLPGDGIGPEVMTQALKVLDAVRNRFAMRITTSHYDVGGAAIDNHGQPLPPATVEGCEQADAVLFGSVGGPKWEHLPPDQQPERGALLPLRKHFKLFSNLRPAKLYQGLEAFCPLRADIAANGFDILCVRELTGGIYFGQPKGREGSGQYEKAFDTEVYHRFEIERIARIAFESARKRRHKVTSIDKANVLQSSILWREIVNEIATEYPDVELAHMYIDNATMQLIKDPSQFDVLLCSNLFGDILSDECAMITGSMGMLPSASLNEQGFGLYEPAGGSAPDIAGKNIANPIAQILSLALLLRYSLDADDAACAIERAINRALEEGIRTGDLARGAAAVSTDEMGDIIARYVAEGV
Regarding B7, under setting [10], the denaturant m value is 5.56 kcal/mol/M and 2.22 kcal/mol/M; the unfolding free energy was 14.7 kcal/mol and 17.7 kcal/mol. The “unfolding enthalpy (van 't Hoff)” value (Escherichia coli (strain K12), pH 7, Thermal, Fluorescence, potassium phosphate 50 mM, DTT 1 mM, transition: 3, reversible: yes) was 15.4 kcal/mol and 17.8 kcal/mol.

B8: Tetracycline repressor protein class D wild type, P0ACT4 (protein)
chain: MARLNRESVIDAALELLNETGIDGLTTRKLAQKLGIEQPTLYWHVKNKRALLDALAVEILARHHDYSLPAAGESWQSFLRNNAMSFRRALLRYRDGAKVHLGTRPDEKQYDTVETQLRFMTENGFSLRDGLYAISAVSHFTLGAVLEQQEHTAALTDRPAAPDENLPPLLREALQIMDSDDGEQAFLHGLESLIRGFEVQLTALLQIVGGDKLIIPFC
For the protein B8, where the note is “Escherichia coli, pH 7.5, 22 °C, Urea, CD, Tris-HCl 50 mM, NaCl 150 mM, reversible: yes(96%)”, the “denaturant midpoint (higher = more stable)” value is 4.7 M.

B9: Met repressor wild type, P0A8U6 (protein)
chain: MAEWSGEYISPYAEHGKKSEQVKKITVSIPLKVLKILTDERTRRQVNNLRHATNSELLCEAFLHAFTGQPLPDDADLRKERSDEIPEAAKEIMREMGINPETWEY
On to B9, for which, under setting [11], the “heat capacity change of unfolding” value worked out at 2.13 kcal/mol/K and the unfolding free energy turned out to be 7.77 kcal/mol. For the same protein, under setting [12], the midpoint of thermal melting (Tm) was found to be 53.2 °C, the “heat capacity change of unfolding” value is 2.13 kcal/mol/K, the “unfolding enthalpy (calorimetric)” value turned out to be 121 kcal/mol and the “unfolding enthalpy (van 't Hoff)” value came out at 131 kcal/mol.

What is called Tm is the temperature at which the thermal transition is half complete.
